According to patent US20150344570A1 (published 2015):

T1: FcγRIIb (human, UniProt P31994 43-217)
T1 construct: extracellular domain; Soluble extracellular domain with C-terminal His tag, used as analyte; also called FcgRIIb; CD32B; not shown: His tag at the C terminus
T1 sequence (looked up): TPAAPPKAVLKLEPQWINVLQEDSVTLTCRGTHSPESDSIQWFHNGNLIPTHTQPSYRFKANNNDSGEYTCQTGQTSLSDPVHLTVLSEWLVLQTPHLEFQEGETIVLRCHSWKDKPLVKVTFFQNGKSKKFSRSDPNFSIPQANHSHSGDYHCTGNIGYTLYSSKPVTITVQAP

B1: GpH7-A5/GpH7-B3 variant S324_10E/GpL16-k0 (antibody, human IgG1, kappa)
heavy 1: not shown
heavy 2: not shown
light: DIVMTQSPLSLPVTPGEPASISCQASESLVHSNRNTYLHWYLQKPGQSPQLLIYKVSNRFSGVPDRFSGSGSGTDFTLKISRVEAEDVGVYYCSQNTHVPPTFGQGTKVEIERTVAAPSVFIFPPSDEQLKSGTASVVCLLNNFYPREAKVQWKVDNALQSGNSQESVTEQDSKDSTYSLSSTLTLSKADYEKHKVYACEVTHQGLSSPVTKSFNRGEC
notes: He Ab: mutation in one H chain only; also called He Ab
B2: GpH7-A5/GpH7-B3 variant Y300_12R/GpL16-k0 (antibody, human IgG1, kappa)
heavy 1: not shown
heavy 2: not shown
light: B1 light
notes: as for B1
B3: GpH7-A5/GpH7-B3 variant S324_12R/GpL16-k0 (antibody, human IgG1, kappa)
heavy 1: not shown
heavy 2: not shown
light: B1 light
notes: as for B1
B4: GpH7-A5/GpH7-B3 variant S324_19Q/GpL16-k0 (antibody, human IgG1, kappa)
heavy 1: not shown
heavy 2: not shown
light: B1 light
notes: as for B1
B5: GpH7-A5/GpH7-B3 variant Y300_02A/GpL16-k0 (antibody, human IgG1, kappa)
heavy 1: not shown
heavy 2: not shown
light: B1 light
notes: as for B1
B6: GpH7-A5/GpH7-B3 variant Y300_13S/GpL16-k0 (antibody, human IgG1, kappa)
heavy 1: not shown
heavy 2: not shown
light: B1 light
notes: as for B1
B7: GpH7-A5/GpH7-B3 variant S337_02A/GpL16-k0 (antibody, human IgG1, kappa)
heavy 1: not shown
heavy 2: not shown
light: B1 light
notes: as for B1
B8: GpH7-A5/GpH7-B3 variant S337_01G/GpL16-k0 (antibody, human IgG1, kappa)
heavy 1: not shown
heavy 2: not shown
light: B1 light
notes: as for B1
B9: GpH7-A5/GpH7-B3 variant Y300_14T/GpL16-k0 (antibody, human IgG1, kappa)
heavy 1: not shown
heavy 2: not shown
light: B1 light
notes: as for B1
B10: GpH7-A5/GpH7-B3 variant S324_14T/GpL16-k0 (antibody, human IgG1, kappa)
heavy 1: not shown
heavy 2: not shown
light: B1 light
notes: as for B1
B11: GpH7-A5/GpH7-B3 variant Y300_20W/GpL16-k0 (antibody, human IgG1, kappa)
heavy 1: not shown
heavy 2: not shown
light: B1 light
notes: as for B1
B12: GpH7-A5/GpH7-B3 variant Y300_07I/GpL16-k0 (antibody, human IgG1, kappa)
heavy 1: not shown
heavy 2: not shown
light: B1 light
notes: as for B1
B13: GpH7-A5/GpH7-B3 variant S337_06M/GpL16-k0 (antibody, human IgG1, kappa)
heavy 1: not shown
heavy 2: not shown
light: B1 light
notes: as for B1
B14: GpH7-A5/GpH7-B3 variant Y300_03V/GpL16-k0 (antibody, human IgG1, kappa)
heavy 1: not shown
heavy 2: not shown
light: B1 light
notes: as for B1
B15: GpH7-A5/GpH7-B3 variant S324_16H/GpL16-k0 (antibody, human IgG1, kappa)
heavy 1: not shown
heavy 2: not shown
light: B1 light
notes: as for B1
B16: GpH7-A5/GpH7-B3 variant S324_20W/GpL16-k0 (antibody, human IgG1, kappa)
heavy 1: not shown
heavy 2: not shown
light: B1 light
notes: as for B1
B17: GpH7-A5/GpH7-B3 variant S337_04F/GpL16-k0 (antibody, human IgG1, kappa)
heavy 1: not shown
heavy 2: not shown
light: B1 light
notes: as for B1
B18: GpH7-A5/GpH7-B3 variant S337_12R/GpL16-k0 (antibody, human IgG1, kappa)
heavy 1: not shown
heavy 2: not shown
light: B1 light
notes: as for B1
B19: GpH7-A5/GpH7-B3 variant Y300_05P/GpL16-k0 (antibody, human IgG1, kappa)
heavy 1: not shown
heavy 2: not shown
light: B1 light
notes: as for B1
B20: GpH7-A5/GpH7-B3 variant S324_18N/GpL16-k0 (antibody, human IgG1, kappa)
heavy 1: not shown
heavy 2: not shown
light: B1 light
notes: as for B1
B21: GpH7-A5/GpH7-B3 variant S337_19Q/GpL16-k0 (antibody, human IgG1, kappa)
heavy 1: not shown
heavy 2: not shown
light: B1 light
notes: as for B1
B22: GpH7-A5/GpH7-B3 variant S324_09D/GpL16-k0 (antibody, human IgG1, kappa)
heavy 1: not shown
heavy 2: not shown
light: B1 light
notes: as for B1
B23: GpH7-A5/GpH7-B3 variant S337_03V/GpL16-k0 (antibody, human IgG1, kappa)
heavy 1: not shown
heavy 2: not shown
light: B1 light
notes: as for B1
B24: GpH7-A5/GpH7-B3 variant Y300_06M/GpL16-k0 (antibody, human IgG1, kappa)
heavy 1: not shown
heavy 2: not shown
light: B1 light
notes: as for B1

Each binder was assayed against T1, FcγRIIb (assay: SPR (Biacore), captured antibody, FcγR as analyte, relative binding).

He/Con_2b | Binder
77.4 % of GpH7-A5/GpH7-B3/GpL16-k0 | B1
41.2 % of GpH7-A5/GpH7-B3/GpL16-k0 | B2
63.1 % of GpH7-A5/GpH7-B3/GpL16-k0 | B3
66.8 % of GpH7-A5/GpH7-B3/GpL16-k0 | B4
69.2 % of GpH7-A5/GpH7-B3/GpL16-k0 | B5
53.9 % of GpH7-A5/GpH7-B3/GpL16-k0 | B6
97.2 % of GpH7-A5/GpH7-B3/GpL16-k0 | B7
92 % of GpH7-A5/GpH7-B3/GpL16-k0 | B8
55.6 % of GpH7-A5/GpH7-B3/GpL16-k0 | B9
88.4 % of GpH7-A5/GpH7-B3/GpL16-k0 | B10
84.1 % of GpH7-A5/GpH7-B3/GpL16-k0 | B11
74.5 % of GpH7-A5/GpH7-B3/GpL16-k0 | B12
96.7 % of GpH7-A5/GpH7-B3/GpL16-k0 | B13
73.9 % of GpH7-A5/GpH7-B3/GpL16-k0 | B14
83.5 % of GpH7-A5/GpH7-B3/GpL16-k0 | B15
87.5 % of GpH7-A5/GpH7-B3/GpL16-k0 | B16
97.8 % of GpH7-A5/GpH7-B3/GpL16-k0 | B17
99.5 % of GpH7-A5/GpH7-B3/GpL16-k0 | B18
7.3 % of GpH7-A5/GpH7-B3/GpL16-k0 | B19
81.1 % of GpH7-A5/GpH7-B3/GpL16-k0 | B20
99.7 % of GpH7-A5/GpH7-B3/GpL16-k0 | B21
85.8 % of GpH7-A5/GpH7-B3/GpL16-k0 | B22
98.9 % of GpH7-A5/GpH7-B3/GpL16-k0 | B23
84.3 % of GpH7-A5/GpH7-B3/GpL16-k0 | B24

These binders were tested against T2, FcγRIa (human, UniProt P12314 16-292) in the same assay as above.
T2 construct: extracellular domain; Soluble extracellular domain with C-terminal His tag, used as analyte; also called FcgRI; CD64; not shown: His tag at the C terminus
T2 sequence (P12314 16-292): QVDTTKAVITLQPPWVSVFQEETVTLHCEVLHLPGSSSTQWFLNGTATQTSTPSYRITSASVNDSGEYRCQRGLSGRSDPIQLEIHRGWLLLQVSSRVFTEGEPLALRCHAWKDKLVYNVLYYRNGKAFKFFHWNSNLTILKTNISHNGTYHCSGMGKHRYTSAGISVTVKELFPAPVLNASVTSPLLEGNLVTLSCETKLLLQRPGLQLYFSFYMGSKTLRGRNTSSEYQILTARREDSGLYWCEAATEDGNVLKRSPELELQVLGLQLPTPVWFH

He/Con_1a | Binder
105 % of GpH7-A5/GpH7-B3/GpL16-k0 | B1
105 % of GpH7-A5/GpH7-B3/GpL16-k0 | B2
102 % of GpH7-A5/GpH7-B3/GpL16-k0 | B3
112 % of GpH7-A5/GpH7-B3/GpL16-k0 | B4
112 % of GpH7-A5/GpH7-B3/GpL16-k0 | B5
111 % of GpH7-A5/GpH7-B3/GpL16-k0 | B6
106 % of GpH7-A5/GpH7-B3/GpL16-k0 | B7
107 % of GpH7-A5/GpH7-B3/GpL16-k0 | B8
112 % of GpH7-A5/GpH7-B3/GpL16-k0 | B9
121 % of GpH7-A5/GpH7-B3/GpL16-k0 | B10
112 % of GpH7-A5/GpH7-B3/GpL16-k0 | B11
108 % of GpH7-A5/GpH7-B3/GpL16-k0 | B12
107 % of GpH7-A5/GpH7-B3/GpL16-k0 | B13
117 % of GpH7-A5/GpH7-B3/GpL16-k0 | B14
113 % of GpH7-A5/GpH7-B3/GpL16-k0 | B15
114 % of GpH7-A5/GpH7-B3/GpL16-k0 | B16
106 % of GpH7-A5/GpH7-B3/GpL16-k0 | B17
106 % of GpH7-A5/GpH7-B3/GpL16-k0 | B18
60.2 % of GpH7-A5/GpH7-B3/GpL16-k0 | B19
116 % of GpH7-A5/GpH7-B3/GpL16-k0 | B20
105 % of GpH7-A5/GpH7-B3/GpL16-k0 | B21
104 % of GpH7-A5/GpH7-B3/GpL16-k0 | B22
107 % of GpH7-A5/GpH7-B3/GpL16-k0 | B23
112 % of GpH7-A5/GpH7-B3/GpL16-k0 | B24
